Here are results for eleven substances from publication PMC12106674.

For experiment [1], the target named is human FcRn of the human FcRn Affinity Column (Roche) (human) (UniProt P55899). Put plainly: analytical FcRn affinity chromatography; human FcRn Affinity Column (Roche); albumin or GLP-1 albumin fusions (2 mg/mL) loaded at pH 5.5 and eluted by a pH gradient from 5.5 (20 mM MES/HCl, 140 mM NaCl) to 8.8 (20 mM Tris/HCl, 140 mM NaCl), 0.5 mL/min, 110 min, room temperature.

For experiment [2], the target named is recombinant biotinylated human FcRn (Immunitrack) (human) (UniProt P55899). The experiment can be described thus: SPR; biotinylated human FcRn (~100 RU) captured on an SA sensor chip; 2-fold serial dilutions of albumin variants or GLP-1 albumin fusions injected in duplicates; pH 5.5 PBS (177 mM phosphate, 85 mM NaCl, 0.05% Tween 20), 25 °C, 40 µL/min; 1:1 Langmuir model.

For experiment [3] the target is unchanged.
Experiment [4] shares this target. This is another data set of the same source.
In experiment [5] the target is human GLP-1 receptor (GLP-1R) on reporter cells (human) (UniProt P43220).
Sequence of UniProt P43220 (P43220 24-463): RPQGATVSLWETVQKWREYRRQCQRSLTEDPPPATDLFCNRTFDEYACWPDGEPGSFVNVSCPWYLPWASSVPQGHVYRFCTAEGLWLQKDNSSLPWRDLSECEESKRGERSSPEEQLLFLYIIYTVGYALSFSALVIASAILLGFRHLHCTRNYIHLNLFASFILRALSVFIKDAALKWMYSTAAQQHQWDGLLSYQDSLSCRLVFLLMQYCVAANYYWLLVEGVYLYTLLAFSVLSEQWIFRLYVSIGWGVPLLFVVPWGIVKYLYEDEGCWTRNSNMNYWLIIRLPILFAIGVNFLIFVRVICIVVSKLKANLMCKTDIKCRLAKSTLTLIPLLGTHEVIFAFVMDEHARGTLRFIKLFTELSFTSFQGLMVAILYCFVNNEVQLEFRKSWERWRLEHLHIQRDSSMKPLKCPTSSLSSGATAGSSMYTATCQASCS
The target of experiment [6] is recombinant biotinylated human FcRn (Immunitrack) (human) (UniProt P55899). The source holds these as a separate data set.

A value given as a limit tells only on which side of the number the result lay.

With “Tanzeum (albiglutide) (from UniProt P02768 25-609)”, the elution pH in experiment [1] is 6.9 pH. Besides, in experiment [2], the equilibrium dissociation constant (Kd) was 76.1 nM.

On to “QMP-engineered human albumin (E505Q, T527M, K573P), full-length (natural protein)”, for which, in experiment [2], the Kd is 0.3 nM, the koff is 4e-05 s⁻¹ and the kon is 144000 M⁻¹ s⁻¹. In addition, in experiment [3], the plasma half-life after IV injection in hemizygous human FcRn Tg32 mice was 108 h.

In the case of “QMP variant recombinantly expressed without the L585 residue (QMP/LX) (natural protein)”, in experiment [2], the Kd amounted to 0.9 nM, the koff amounted to 0.0001 s⁻¹ and the kon is 115000 M⁻¹ s⁻¹. Further, the plasma half-life after IV injection in hemizygous human FcRn Tg32 mice in experiment [3] is 103 h.

Consider “GLP-1 QMP (GLP-1 albumin fusion with QMP-engineered albumin)”, for which the elution pH in experiment [1] came out at 7.8 pH. In addition, in experiment [2], the Kd was under 0.03 nM, the koff is under 1e-05 s⁻¹ and the on-rate (kon) turned out to be 381000 M⁻¹ s⁻¹. Besides, the cellular recycling in HERA with HMEC-1-FcRn cells (800 nM), relative to GLP-1 WT in experiment [4] was determined as 4.5 fold. In experiment [5], the EC50 of luciferase signal in human GLP-1R reporter cells (0.08–6250 nM, 23 h) was 44.4 nM. Also, the plasma half-life after IV injection in homozygous human FcRn Tg32 mice (GLP-1 WT: 1.3 days) in experiment [6] stood at 64.8 h.

On to human albumin L585I (natural protein), for which, in experiment [2], the Kd was found to be 604 nM, the koff was 0.0175 s⁻¹ and the association rate constant (kon) was determined as 29000 M⁻¹ s⁻¹.

In experiment [5], “unfused GLP-1(7–36) included in the reporter assay kit (peptide)” yielded an EC50 of luciferase signal in human GLP-1R reporter cells (0.00062–50 nM, 23 h) of 0.28 nM.

Regarding human albumin L585V (natural protein), in experiment [2], the Kd was determined as 684 nM, the koff was 0.0233 s⁻¹ and the kon was found to be 34000 M⁻¹ s⁻¹.

Turning to “GLP-1 QMP/LX (GLP-1 albumin fusion with QMP-engineered albumin lacking L585)”, the Kd in experiment [2] was found to be 0.2 nM.

For the substance “GLP-1 WT (albiglutide-mimic; two GLP-1(7-36) A2G in tandem fused to the N-terminus of human WT albumin) (from UniProt P02768 25-609)”, the elution pH in experiment [1] was 6.7 pH. Moreover, the Kd in experiment [2] was found to be 114 nM. Also, the EC50 of luciferase signal in human GLP-1R reporter cells (0.08–6250 nM, 23 h) in experiment [5] was found to be 50 nM.

“GLP-1 LX (GLP-1 albumin fusion with WT albumin lacking L585)” yielded an elution pH in experiment [1] of 6.3 pH. Further, in experiment [2], the Kd amounted to 515 nM, the koff is 0.0221 s⁻¹ and the on-rate constant (kon) came to 43000 M⁻¹ s⁻¹. Further, in experiment [4], the cellular recycling in HERA with HMEC-1-FcRn cells (800 nM), relative to GLP-1 WT was 2 fold less. In addition, the plasma half-life after IV injection in homozygous human FcRn Tg32 mice (GLP-1 WT: 1.3 days) in experiment [6] is 21.6 h.

Turning to human albumin L585M (natural protein), in experiment [2], the Kd came out at 678 nM, the koff was found to be 0.0197 s⁻¹ and the kon was 29000 M⁻¹ s⁻¹.
